Measurements as given in patent US20090022728A1 (RINAT NEUROSCIENCE, published 2009).
Blank lines part the entries; values can stand above or below the binder they belong to. Where no end group is shown, it is not given here.

What was measured:
[1] = molecular target: T1, biotinylated Aβ1-40 peptide (biotinylated (N-biotinylated in Example 7)); experiment: SPR, Fab over biotinylated peptide on streptavidin chip
T1 construct: captured on streptavidin (SA) chip; also called Biotinylated Aβ peptide 1-40; Aβ1-40 on SA chip

[2] = molecular target: T2, biotinylated Aβ1-42 peptide (biotinylated (N-biotinylated in Example 7)); experiment: as above
T2 construct: captured on streptavidin chip; also called N-biotinylated Aβ1-42

[3] = molecular target: T3, biotinylated Aβ22-37 peptide (also: biotinylated, site not given here); experiment: as above
T3 peptide: EDVGSNKGAIIGLMVG

Aβ1-40 peptide [4] = molecular target: T4, Aβ1-40 peptide; experiment: SPR, peptide flowed over 6G mAb on CM5 chip; the reference itself
T4 construct: synthetic peptide, not biotinylated; also called 1-40 (WT); beta amyloid 1-40

Aβ1-36 peptide [5] = experiment: SPR, peptide flowed over 6G mAb on CM5 chip; reference Aβ1-40
Chain of Aβ1-36 peptide (peptide, as listed by the source): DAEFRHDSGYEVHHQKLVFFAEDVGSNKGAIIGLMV

Aβ1-38 peptide [6] = experiment: as above
Chain of Aβ1-38 peptide (peptide, as listed by the source): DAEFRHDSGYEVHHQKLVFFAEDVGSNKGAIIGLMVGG

Aβ17-42 peptide [7] = molecular target: T5, Aβ17-42 peptide; experiment: as above
T5 peptide: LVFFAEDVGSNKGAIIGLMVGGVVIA

Aβ28-42 peptide [8] = molecular target: T6, Aβ28-42 peptide; experiment: as above
T6 peptide: KGAIIGLMVGGVVIA

Aβ28-40 peptide [9] = molecular target: T7, Aβ28-40 peptide; experiment: as above
T7 peptide: KGAIIGLMVGGVV

Aβ17-40 peptide [10] = molecular target: T8, Aβ17-40 peptide; experiment: as above
T8 peptide: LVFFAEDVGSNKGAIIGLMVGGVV

Aβ22-35 peptide [11] = molecular target: T9, Aβ22-35 peptide; experiment: as above
T9 peptide: EDVGSNKGAIIGLM

Aβ1-39 peptide [12] = experiment: as above
Chain of Aβ1-39 peptide (peptide, as listed by the source): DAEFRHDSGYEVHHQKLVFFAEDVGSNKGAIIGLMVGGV

Aβ1-42 peptide [13] = molecular target: T10, Aβ1-42 peptide; experiment: as above
T10 construct: also called 1-42 (WT)

Aβ1-37 peptide [14] = experiment: as above
Chain of Aβ1-37 peptide (peptide, as listed by the source): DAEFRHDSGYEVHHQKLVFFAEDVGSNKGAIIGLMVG

[15] = molecular target: T11, Aβ28-40-NH2 peptide (carboxy-terminal amidated); experiment: as above
T11 peptide: KGAIIGLMVGGVV-NH2

Aβ1-36 peptide [16] = experiment: SPR, peptide flowed over 6G mAb on CM5 chip
Aβ1-28 peptide = experiment: SPR, peptide flowed over 6G mAb on CM5 chip
Chain of Aβ1-28 peptide (peptide, as listed by the source): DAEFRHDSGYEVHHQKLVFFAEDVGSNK

Aβ1-38 peptide [17] = experiment: SPR, peptide flowed over 6G mAb on CM5 chip
Aβ1-43 peptide = molecular target: T12, Aβ1-43 peptide; experiment: SPR, peptide flowed over 6G mAb on CM5 chip
T12 construct: also called 1-43 (WT)
T12 sequence (peptide, as listed by the source): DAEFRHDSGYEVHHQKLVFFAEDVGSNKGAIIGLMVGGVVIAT

Aβ1-40 peptide [18] = molecular target: T4, Aβ1-40 peptide; experiment: SPR, peptide flowed over 6G mAb on CM5 chip
Aβ17-42 peptide [19] = molecular target: T5, Aβ17-42 peptide; experiment: SPR, peptide flowed over 6G mAb on CM5 chip
Aβ28-42 peptide [20] = molecular target: T6, Aβ28-42 peptide; experiment: SPR, peptide flowed over 6G mAb on CM5 chip
Aβ28-40 peptide [21] = molecular target: T7, Aβ28-40 peptide; experiment: SPR, peptide flowed over 6G mAb on CM5 chip
Aβ17-40 peptide [22] = molecular target: T8, Aβ17-40 peptide; experiment: SPR, peptide flowed over 6G mAb on CM5 chip
Aβ22-35 peptide [23] = molecular target: T9, Aβ22-35 peptide; experiment: SPR, peptide flowed over 6G mAb on CM5 chip
Aβ1-39 peptide [24] = experiment: SPR, peptide flowed over 6G mAb on CM5 chip
Aβ1-42 peptide [25] = molecular target: T10, Aβ1-42 peptide; experiment: SPR, peptide flowed over 6G mAb on CM5 chip
Aβ1-37 peptide [26] = experiment: SPR, peptide flowed over 6G mAb on CM5 chip
[27] = molecular target: T11, Aβ28-40-NH2 peptide (carboxy-terminal …); experiment: SPR, peptide flowed over 6G mAb on CM5 chip
[28] = molecular target: T13, biotinylated Aβ 26-35 peptide with C-terminal glycine (also: biotinylated, site not given here); experiment: ELISA on biotinylated peptides on streptavidin plates
T13 peptide: SNKGAIIGLMG
Procedure: (§1) ELISA was used for measuring binding of antibody 6G and variants to biotinylated Aβ peptides. NUNC maxisorp plates were coated with 6 ug/ml of streptavidin (Pierce, 21122) in PBS pH 7.4 for more than 1 h at 4° C. Plates were blocked with 1% BSA in PBS buffer pH 7.4. After washing, biotinylated Aβ peptides in PBS pH 7.4 were incubated 1 hour at room temperature. Primary antibody (from cell supernatants, serum containing anti-Aβ antibody, or purified full antibody or Fabs at desired dilution) was incubated with the immobilized Aβ peptides for 1 h at room temperature. After washing, plates were incubated with secondary antibody, a HRP conjugated goat anti-human kappa chain antibody (MP Biomedicals, 55233) at 1:5000 dilution. After washing, bound secondary antibody was measured by adding TMB substrate (KPL, 50-76-02, 50-65-02). HRP reaction was stopped by adding 1M phosphoric acid and absorbance at 450 nm was measured.
(§2) Epitope mapping of antibody 6G was performed by ELISA assay. Biotinylated 15-mer or 10-mer of various Aβ peptides (these peptides have glycine added to the C-terminal end) were immobilized on streptavidin coated plates. Antibody 6G (from 2.5 ug/ml to 10 ug/ml) was incubated with the immobilized peptides and binding was measured as described above.

[29] = molecular target: T14, biotinylated Aβ 26-40 peptide with C-terminal glycine (also: biotinylated, site not given here); experiment: as above
T14 peptide: SNKGAIIGLMVGGVVG
Procedure: as §1, §2

[30] = molecular target: T15, biotinylated Aβ 24-33 peptide with C-terminal glycine (also: biotinylated, site not given here); experiment: as above
T15 peptide: VGSNKGAIIGG
Procedure: as §1, §2

[31] = molecular target: T16, biotinylated Aβ 27-41 peptide with C-terminal glycine (also: biotinylated, site not given here); experiment: as above
T16 peptide: NKGAIIGLMVGGVVIG
Procedure: as §1, §2

[32] = molecular target: T17, biotinylated Aβ 19-33 peptide with C-terminal glycine (also: biotinylated, site not given here); experiment: as above
T17 peptide: FFAEDVGSNKGAIIGG
Procedure: as §1, §2

Aβ1-16 peptide = molecular target: T18, Aβ1-16 peptide; experiment: ELISA on immobilized Aβ peptides
T18 peptide: DAEFRHDSGYEVHHQK
Procedure: (§3) To determine the epitope on Aβ peptide that is recognized by antibody 6G, ELISA binding analysis was used. Various Aβ peptides (Global Peptide Services, CO) was immobilized on a ELISA plate. The binding of 6G full antibody (at 20 nM) to the immobilized Aβ was determined by ELISA as described above. […] Thus, antibody 6G binds to the C-terminus of various truncated Aβ peptide, for example, 22-35, 1-38, 1-40, 1-42, and 1-43.

Aβ33-40 peptide = molecular target: T19, Aβ33-40 peptide; experiment: ELISA on immobilized Aβ peptides
T19 construct: also called C-terminal peptide (33-40) of Aβ1-40
T19 peptide: GLMVGGVV
Procedure: as §3

Aβ1-40 peptide [33] = molecular target: T4, Aβ1-40 peptide; experiment: SPR, mAb on CM5 chip, peptide flowed
Procedure: Affinities of 9TL monoclonal antibody were determined using the BIAcore3000™ surface plasmon resonance (SPR) system (BIAcore, INC, Piscaway N.J.). […] CM5 chips were activated with N-ethyl-N′-(3-dimethylaminopropyl)-carbodiimide hydrochloride (EDC) and N-hydroxysuccinimide (NHS) according to the supplier's instructions. Antibody 9TL or its variants was diluted into 10 mM sodium acetate pH 4.0 or 5.0 and injected over the activated chip at a concentration of 0.005 mg/mL. Using variable flow time across the individual chip channels, a range of antibody density was achieved: 1000-2000 or 2000-3000 response units (RU). The chip was blocked with ethanolamine. […] HBS-EP buffer (0.01M HEPES, pH 7.4, 0.15 M NaCl, 3 mM EDTA, 0.005% Surfactant P20) was used as running buffer for all the BIAcore assays. […] Kinetic association rates (kₒₙ) and dissociation rates (koff) were obtained simultaneously by fitting the data to a 1:1 Langmuir binding model (Karlsson, R. Roos, H. Fagerstam, L. Petersson, B. (1994). Methods Enzymology 6. 99-110) using the BIAevaluation program. Equilibrium dissociation constant (KD) values were calculated as koff/kₒₙ.

[34] = molecular target: T1, biotinylated Aβ1-40 peptide; experiment: SPR, Fab over N-biotinylated peptide on SA chip
Procedure: (§4) Affinities of 7G10 antibody were determined using BIAcore3000® as described previously in Example 1. N-biotinylated Aβ1-40, 1-42, and 1-43 were captured on SA chip. Threefold dilution series of anti-Aβ1-40 Fabs, anti-Aβ1-42 Fabs, and anti-Aβ1-43 Fabs respectively, were injected starting with a ⅙ dilution of the 7G10 stock listed above. The chip was regenerated with an 18 sec pulse of 6% EtOH+6 mM NaOH.

[35] = molecular target: T2, biotinylated Aβ1-42 peptide; experiment: SPR, Fab over N-biotinylated peptide on SA chip
Procedure: as §4

[36] = molecular target: T20, N-biotinylated Aβ1-43 peptide (N-biotinylated); experiment: SPR, Fab over N-biotinylated peptide on SA chip
T20 construct: captured on SA chip
Procedure: as §4

Kd [1]: 2 nM | koff [1]: 0.0007 s⁻¹ | kon [1]: 300000 M⁻¹ s⁻¹ | Kd [2]: 80 nM | koff [2]: 0.0016 s⁻¹ | kon [2]: 18000 M⁻¹ s⁻¹ | Kd [3]: 11 nM | koff [3]: 0.0039 s⁻¹ | kon [3]: 360000 M⁻¹ s⁻¹
B1: 6G Fab fragment (Fab, V domains shown)
VH: QVQLVQSGAEVKKPGASVKVSCKASGYTFTTYAIHWVRQAPGQGLEWMGFTSPYSGVSNYNQKFKGRVTMTRDTSTSTVYMELSSLRSEDTAVYYCARFDNYDRGYVRDYWGQGTLVTVS
VL: DIVMTQSPDSLAVSLGERATINCRASESVDNDRISFLNWYQQKPGQPPKLLIYAATKQGTGVPDRFSGSGSGTDFTLTISSLQAEDVAVYYCQQSKEFPWSFGGGTKVEIKR
notes: Fab from E. coli with human IgG2 CH1 (P01859) and human kappa constant domain (CAA09181)

koff Aβ peptide/koff Aβ1-40 (fold loss of affinity) (Aβ1-40 peptide [4]): 1 fold | koff Aβ peptide/koff Aβ1-40 (fold loss of affinity) (Aβ1-36 peptide [5]): 155 fold | koff Aβ peptide/koff Aβ1-40 (fold loss of affinity) (Aβ1-38 peptide [6]): 70.4 fold | koff Aβ peptide/koff Aβ1-40 (fold loss of affinity) (Aβ17-42 peptide [7]): 352 fold | koff Aβ peptide/koff Aβ1-40 (fold loss of affinity) (Aβ28-42 peptide [8]): 25.5 fold | koff Aβ peptide/koff Aβ1-40 (fold loss of affinity) (Aβ28-40 peptide [9]): 4.8 fold | koff Aβ peptide/koff Aβ1-40 (fold loss of affinity) (Aβ17-40 peptide [10]): 1.6 fold | koff Aβ peptide/koff Aβ1-40 (fold loss of affinity) (Aβ22-35 peptide [11]): 216 fold | koff Aβ peptide/koff Aβ1-40 (fold loss of affinity) (Aβ1-39 peptide [12]): 60 fold | koff Aβ peptide/koff Aβ1-40 (fold loss of affinity) (Aβ1-42 peptide [13]): 14.4 fold | koff Aβ peptide/koff Aβ1-40 (fold loss of affinity) (Aβ1-37 peptide [14]): 113 fold | koff Aβ peptide/koff Aβ1-40 (fold loss of affinity) [15]: 27.4 fold | koff (Aβ1-36 peptide [16]): 0.0205 s⁻¹ | binding result (Aβ1-28 peptide): no binding | koff (Aβ1-38 peptide [17]): 0.0093 s⁻¹ | binding result (Aβ1-43 peptide): binds | koff (Aβ1-40 peptide [18]): 0.000132 s⁻¹ | koff (Aβ17-42 peptide [19]): 0.0465 s⁻¹ | koff (Aβ28-42 peptide [20]): 0.00337 s⁻¹ | koff (Aβ28-40 peptide [21]): 0.00064 s⁻¹ | koff (Aβ17-40 peptide [22]): 0.000215 s⁻¹ | koff (Aβ22-35 peptide [23]): 0.0285 s⁻¹ | koff (Aβ1-39 peptide [24]): 0.00792 s⁻¹ | koff (Aβ1-42 peptide [25]): 0.0019 s⁻¹ | koff (Aβ1-37 peptide [26]): 0.0149 s⁻¹ | koff [27]: 0.00362 s⁻¹ | binding result (Aβ1-16 peptide): no binding (tested: 20 nM) | binding result (Aβ33-40 peptide): no binding (tested: 20 nM)
B2: antibody 6G (full monoclonal antibody) (antibody, human IgG2, kappa, V domains shown)
VH: QVQLVQSGAEVKKPGASVKVSCKASGYTFTTYAIHWVRQAPGQGLEWMGFTSPYSGVSNYNQKFKGRVTMTRDTSTSTVYMELSSLRSEDTAVYYCARFDNYDRGYVRDYWGQGTLVTVSS
VL: B1 VL
notes: human IgG2a constant region with A330P331 to S330S331; human kappa light chain; also called 6G full antibody; 6G monoclonal antibody
binding result [28]: no binding (tested: 2.5 ug/ml to 10 ug/ml) | binding result [29]: no binding (tested: 2.5 ug/ml to 10 ug/ml) | binding result [30]: no binding (tested: 2.5 ug/ml to 10 ug/ml) | binding result [31]: no binding (tested: 2.5 ug/ml to 10 ug/ml) | binding result [32]: no binding (tested: 2.5 ug/ml to 10 ug/ml)

Kd (Aβ1-40 peptide [33]): 0.9 nM | koff (Aβ1-40 peptide [33]): 0.000389 s⁻¹ | kon (Aβ1-40 peptide [33]): 425000 M⁻¹ s⁻¹
B3: antibody 9TL (full monoclonal antibody) (antibody, human IgG2, kappa, V domains shown)
VH: QVQLVQSGAEVKKPGASVKVSCKASGYYTEAYYIHWVRQAPGQGLEWMGRIDPATGNTKYAPRLQDRVTMTRDTSTSTVYMELSSLRSEDTAVYYCASLYSLPVYWGQGTTVTVSS
VL: DVVMTQSPLSLPVTLGQPASISCKSSQSLLYSDAKTYLNWFQQRPGQSPRRLIYQISRLDPGVPDRFSGSGSGTDFTLKISRVEAEDVGVYYCLQGTHYPVLFGQGTRLEIKR
notes: human IgG2a constant region with A330P331 to S330S331; human kappa light chain; also called 9TL mAb

binding result [34]: no binding | Kd [35]: 37.6 nM | Kd [36]: 41 nM
B4: murine antibody 7G10 (Fab) (Fab, V domains shown)
VH: EVKLVESGGDLVKPGGSLKLSCAASGFTFSTYAMSWIRQTPEKRLEWVASIGNSSRTYYPDSVKGRFTISRDNAGSILYLQMSSLRSEDTAIYYCARGEDGNYAWFTYWGQGTQVTVS
VL: DIVLTQSPATLSVTPGDSVSLSCRASQSVKNNLHWYQQKSHESPRLLIKYTFQSMSGIPSRFSGSGSGTDFTLIINSVETEDFGMYFCQQSNRWPLTFGAGTKLEL
notes: Fab was injected in the Biacore assay; also called m7G10
